Experimental data taken from patent US20070014799A1.

How the values were obtained:
[1] = target: monoclonal antibody ZAL2-106a producible from the hybridoma ZAL2-106 (FERM BP-8432); test: competitive EIA: unlabeled human ZAQL-2 against HRP-labeled human ZAQL-2 on ZAL2-106a (50 ng/ml) captured on anti-mouse immunoglobulin plate
[2] = target: monoclonal antibody ZAL2-103a producible from the hybridoma ZAL2-103 (FERM BP-8431); test: competitive EIA: unlabeled human ZAQL-2 against HRP-labeled human ZAQL-2 on ZAL2-103a (50 ng/ml) captured on anti-mouse immunoglobulin plate

IC50 [1]: 3 nM
IC50 [2]: 0.8 nM
B1: Human ZAQL-2 (human Bv8 maturation peptide) (ligand)
chain: AVITGACDKDSQCGGGMCCAVSIWVKSIRICTPMGKLGDSCHPLTRKVPFFGRRMHHTCPCLPGLACLRTSFNRFICLAQK
